Test results as given in patent publication US20200199207A1 (MABYLON, published 2020).
Changes are numbered by the printed parent chain.

T1: Ara h 2 (peanut, UniProt Q6PSU2 22-172)
T1 construct: also called full length Ara h 2
T1 sequence (looked up): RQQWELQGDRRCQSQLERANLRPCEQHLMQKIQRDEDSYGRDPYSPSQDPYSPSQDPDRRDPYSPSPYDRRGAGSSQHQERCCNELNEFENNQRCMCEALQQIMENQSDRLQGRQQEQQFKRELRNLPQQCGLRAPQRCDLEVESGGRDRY

B1: h32B10 (antibody, V domains shown)
VH: QVQLVQSGAEVKKPGASVKVSCRASGYIFRNFDINWVRQATGQGLEWMGWMSPKSGDTGYAQKFQGRVTMTRDTSINTAYMELSSLTSEDSAVYYCARGVDGTNWGQGTRVTVSS
VL: DIVMTQSPDSLGVSLGERATISCKSSQSILDNSNNKNFIAWFQQKPGQPPKLLIYWASARESGVPDRFSGSGSGTEFTLTINSLQAEDVAVYYCYQYYSTPHTFGQGTKLDLR
notes: Recombinant human IgG; also called hMAb 32B10
B2: h4B2 (antibody, V domains shown)
VH: QVQLQEAGPRLVKPSQTLSVTCTVSGASITIGGYYWSWIRQHPGKGLEWMGYIYSNGRTYYNPSLKSRIAMSIDTSKNQFSLKLTSVTAADTAIYFCAREAWETPLWGQGTLITVSS
VL: DIQMTQSPSSLSASVGDRVTITCQANQDIVNSLNWFQHKPGTAPKVLIYDASKLETGVPSRFSGSGSGTHFTFTISGLQPEDFATYFCQQYENLPHTFGQGTKLEIR
notes: Recombinant human IgG; also called hMAb 4B2
B3: h12G10 (antibody, human IgG1, V domains shown)
VH: EVQLLESGGRLLRPGGSLSLSCVASGFYFGDFGMSWVRQVPGKGLEWVSGIDWSGRSTGYVDSMKGRLTISRDNDKSSLYLQMNDLRGEDTAVYYCARVGRLCSGDSCDSMGAFDLWGQGTMVTVSS
VL: DIQLTQSPSTLSASIGDSVTITCRASQNIDNWLAWYQQKPGKAPRLLIYKASSLGSGVSSKFRGSGFGTEFTLTITSLQPDDFATYYCQKSNGYSRTFGQGTKVDIK
notes: Recombinant human IgG; also called hMAb 12G10
B4: h37D5 (antibody, V domains shown)
VH: EEQLVESGGRLLRPGESLSLSCAAVGFNFGDFGMAWVRQPPGKGLEWVAGINWSGHSTGFVDSMKGRLTISRDSAKSSLFLQMNSLRGEDTAVYYCARVGRLCSGDICDSMGAFDLWGQGTMVTVSS
VL: B3 VL with L4M, S18R, N28T, K39R, R45K, K50Q, G55Q, K61R, F67S, D105E
notes: Recombinant human IgG; also called hMAb 37D5

Tests used:
[1] = molecular target: T1, Ara h 2; assay: competition ELISA on coated Ara h 2; competitor: Patient B serum IgE
Procedure: (§1) Microplates were coated with […] of Ara h 1, Ara h 2, Ara h 3, or Ara h 6, overnight at 4° C. After washing with PBS-Tween 0.05% and blocking with 2% BSA, plates were incubated with increasing concentrations of peanut human IgG antibodies for 1 h at room temperature. Subsequently, plates were incubated with different sera dilutions or different concentrations of murine antibody (as positive control). IgE levels were detected using anti-human HRP-conjugated Fc-epsilon-specific secondary antibody (Abcam, Cambridge, UK) followed by addition of TMB solution (TMB, Sigma, Buchs, Switzerland). Binding of murine antibodies was detected using goat anti-mouse IgG (H+L)-HRP (Jackson ImmunoResearch, West Grove, Pa., USA).

[2] = molecular target: T1, Ara h 2; assay: competition ELISA on coated Ara h 2; competitor: Patient D serum IgE
Procedure: as §1

% inhibition of IgE binding [1] [%] | % inhibition of IgE binding [2] [%] | Binder
26.7 | 8.5 | B1
30.6 | 9.23 | B2
31.2 | 35.7 | B3
29.6 | 35.5 | B4
